# Measured values from patent US20140255408A1 (Janssen / Centocor, published 2014).
# Where two headings read alike, the source gives them in different places.
# Legend:
# [1] = target: T1, Recombinant human c-Met Fc chimera (human, UniProt P08581 16-932); experiment: SPR (ProteOn), protocol of Example 3, recombinant c-Met extracellular domain
# T1 construct: not shown: Fc part
# [2] = target: T2, human c-Met on cells (human, UniProt P08581 25-1390); experiment: cell-based or functional assay
# [3] = target: T3, human EGFR on cells (human, UniProt P00533 25-1210); experiment: cell-based or functional assay
# [4] = target: T4, recombinant human extracellular domain of EGFR fused to an IgG1 Fc (human, UniProt P00533 25-645); experiment: SPR (ProteOn), protocol of Example 3, recombinant EGFR extracellular domain
# T4 construct: Bought from R&D Systems; The residues are stated for the panning reagent; also called EGFR-Fc; EGF R-Fc; not shown: IgG1 Fc
# Experimental: All 6 analyte channels were used for the FN3 domains to maximize screening throughput. The dissociation phase was monitored for 10 minutes at a flow rate of 100 μL/min. The inter-spot binding signals were used as references to monitor non-specific binding between analytes and the immobilized IgG surface, and were subtracted from all binding responses. The processed binding data were locally fit to a 1:1 simple Langmuir binding model to extract the koff for each FN3 domain binding to captured EGFR-Fc.
# Binding affinity of selected EGFR-binding FN3 domains to recombinant EGFR extracellular domain was further characterized by surface Plasmon resonance methods using a Proteon Instrument (BioRad). The assay set-up (chip preparation, EGFR-Fc capture) was similar to that described above for off-rate analysis. Selected EGFR binding FN3 domains were tested at 1 μM concentration in 3-fold dilution series in the horizontal orientation. A buffer sample was also injected to monitor the baseline stability. […] Two sets of reference data were subtracted from the response data: 1) the inter-spot signals to correct for the non-specific interactions between the EGFR-binding FN3 domain and the immobilized IgG surface; 2) the buffer channel signals to correct for baseline drifting due to the dissociation of captured EGFR-Fc surface over time. The processed binding data at all concentrations for each FN3 domain were globally fit to a 1:1 simple Langmuir binding model to extract estimates of the kinetic (kₘ, koff) and affinity (KD) constants.
# [5] = target: T3, human EGFR on cells; experiment: cell-based or functional assay; remark: listed apart in the source
# [6] = target: T1, Recombinant human c-Met Fc chimera; experiment: HGF competition assay on coated c-Met-Fc, competitor biotinylated HGF
# [7] = target: T1, Recombinant human c-Met Fc chimera; experiment: SPR (ProteOn), c-Met-Fc captured on anti-human Fc IgG, FN3 domain as analyte
# [8] = target: T2, human c-Met on cells; experiment: cell-based or functional assay; remark: listed apart in the source
# [9] = target: T2, human c-Met on cells; experiment: H441 cell binding assay, anti-His detection
# Experimental: Purified FN3 domains (50 μL/well; 0 to 1000 nM) were added to the cells for 1 hour at 4° C. in duplicate plates. […] Cells were incubated with biotinylated-anti HIS antibody (diluted 1:160 in FACS stain buffer, 50 μL/well, R&D Systems, cat #BAM050) for 30 minutes at 4° C. […] Cells were washed three times with FACS stain buffer (150 μL/well) and left in FACS stain buffer (50 μL/well).
Binder,Kd [1] [nM],pMet inhibition in H441 cells (IC50) [2] [nM],H292 pEGFR inhibition in H292 cells (IC50) [3] [nM],Kd [4] [nM],Phospho-EGFR IC50 (A431 cells) [5] [nM],IC50 [6] [nM],Kd [7] [nM],pMet inhibition in H441 cells (IC50) [8] [nM],EC50 [9] [nM],Inhibition of Proliferation of U87-MG cells (IC50) [8] [nM]
"ECB95 (designed binder, not shown: C-terminal poly-histidine tag) MLPAPKNLVVSEVTEDSARLSWDDPWAFYESFLIQYQESEKVGEAIVLTVPGSERSYDLTGLKPGTEYTVSIYGVHNVYKDTNIRGLPLSAIFTTAPAPAPAPAPLPAPKNLVVSRVTEDSARLSWTAPDAAFDSFWIRYFEFVGSGEAIVLTVPGSERSYDLTGLKPGTEYVVNILGVKGGSISPPLSAIFTT",6.2,179,13.6,1.1,–,–,–,–,–,–
"ECB15 (designed binder, not shown: C-terminal poly-histidine tag) MLPAPKNLVVSEVTEDSARLSWDDPWAFYESFLIQYQESEKVGEAIVLTVPGSERSYDLTGLKPGTEYTVSIYGVHNVYKDTNMRGLPLSAIFTTAPAPAPAPAPLPAPKNLVVSRVTEDSARLSWTAPDAAFDSFWIRYFEFLGSGEAIVLTVPGSERSYDLTGLKPGTEYVVNIMGVKGGKISPPLSAIFTT",2.6,–,4.2,0.2,–,–,–,–,–,–
"ECB94 (designed binder, not shown: C-terminal poly-histidine tag) MLPAPKNLVVSEVTEDSARLSWDDPWAFYESFLIQYQESEKVGEAIVLTVPGSERSYDLTGLKPGTEYTVSIYGVHNVYKDTNIRGLPLSAIFTTAPAPAPAPAPLPAPKNLVVSRVTEDSARLSWTAPDAAFDSFWIRYFEFLGSGEAIVLTVPGSERSYDLTGLKPGTEYVVNILGVKGGKISPPLSAIFTT",4.3,53.8,5.1,1,–,–,–,–,–,–
P54AR4-47 (designed binder) LPAPKNLVVSEVTEDSLRLSWWDPFSFYDSFLIQYQESEKVGEAINLTVPGSERSYDLTGLKPGTEYTVSIYGVHNVYKDTNMRGLPLSAEFTT,–,–,–,–,295,–,–,–,–,–
"P114AR7P95-D3 (designed binder, not shown: small tags and cut ends) LPAPKNLVVSRVTEDSARLSWTAPDAAFDSFWIRYFEFLGSGEAIVLTVPGSERSYDLTGLKPGTEYVVNIMGVKGGSISYPLSAIFTT",–,–,–,–,–,0.2,0.3,4.6,–,–
"P114AR7P95-F10 (designed binder, not shown: small tags and cut ends) LPAPKNLVVSRVTEDSARLSWTAPDAAFDSFWIRYFEFTTAGEAIVLTVPGSERSYDLTGLKPGTEYVVNIMGVKGGSISPPLSAIFTT",–,–,–,–,–,1.4,4.2,188,4.4,130
"P114AR7P94-A3 (designed binder, not shown: small tags and cut ends) LPAPKNLVVSRVTEDSARLSWTAPDAAFDSFWIRYFEFLGSGEAIVLTVPGSERSYDLTGLKPGTEYVVNIMGVKGGKISPPLSAIFTT",–,–,–,–,–,0.2,0.4,5,1.4,9.3
"P114AR7P92-F6 (designed binder, not shown: small tags and cut ends) LPAPKNLVVSRVTEDSARLSWTAPDAAFDSFWIRYFEFLGSGEAIVLTVPGSERSYDLTGLKPGTEYVVNILGVKGGGLSVPLSAIFTT",–,–,–,–,–,2.2,3.1,165,4.9,350
"P114AR7P93-G8 (designed binder, not shown: small tags and cut ends) LPAPKNLVVSRVTEDSARLSWTAPDAAFDSFWIRYFEFLGSGEAIVLTVPGSERSYDLTDLKPGTEYGVTINGVKGGRVSTPLSAIFTT",–,–,–,–,–,1,6.9,460,3.8,104
"P114AR7P95-G7 (designed binder, not shown: small tags and cut ends) LPAPKNLVVSRVTEDSARLSWTAPDAAFDSFWIRYFELLSTGEAIVLTVPGSERSYDLTGLKPGTEYVVNIMGVKGGSISPPLSAIFTT",–,–,–,–,–,–,20,659,11.3,692
"P114AR7P95-H8 (designed binder, not shown: small tags and cut ends) LPAPKNLVVSRVTEDSARLSWTAPDAAFDSFWIRYFEFVSKGEAIVLTVPGSERSYDLTGLKPGTEYVVNIMGVKGGSISPPLSAIFTT",–,–,–,–,–,–,3.7,210,4.1,281
"P114AR7P92-G8 (designed binder, not shown: small tags and cut ends) LPAPKNLVVSRVTEDSARLSWTAPDAAFDSFVIRYFEFLGSGEAIVLTVPGSERSYDLTGLKPGTEYVVQILGVKGGYISIPLSAIFTT",–,–,–,–,–,1.6,1,155,5.9,124
"P114AR7P95-D4 (designed binder, not shown: small tags and cut ends) LPAPKNLVVSRVTEDSARLSWTAPDAAFDSFWIRYFEFLGSGEAIVLTVPGSERSYDLTGLKPGTEYVVQILGVKGGYISIPLSAIFTT",–,–,–,–,–,–,0.4,19.5,1.4,19.4
"P114AR5P75-E9 (designed binder, not shown: small tags and cut ends) LPAPKNLVVSRVTEDSARLSWTAPDAAFDSFFIRYDEFLRSGEAIVLTVPGSERSYDLTGLKPGTEYWVTILGVKGGLVSTPLSAIFTT",–,–,–,–,–,51.9,45.8,1420,–,1190
"P114AR7P95-B9 (designed binder, not shown: small tags and cut ends) LPAPKNLVVSRVTEDSARLSWTAPDAAFDSFWIRYFEFLGSGEAIVLTVPGSERSYDLTGLKPGTEYVVQILGVKGGSISVPLSAIFTT",–,–,–,–,–,0.3,–,9.8,–,17.4
"P114AR7P92-F3 (designed binder, not shown: small tags and cut ends) LPAPKNLVVSRVTEDSARLSWTAPDAAFDSFWIRYFEFLGSGEAIVLTVPGSERSYDLTGLKPGTEYIVNIMGVKGGSISHPLSAIFTT",–,–,–,–,–,0.2,0.4,8.3,–,2.7
"P114AR7P93-H9 (designed binder, not shown: small tags and cut ends) LPAPKNLVVSRVTEDSARLSWTAPDAAFDSFWIRYFEFLGSGEAIVLTVPGSERSYDLTGLKPGTEYVVQIIGVKGGHISLPLSAIFTT",–,–,–,–,–,2.9,3.3,288,12.9,270
"P114AR7P93-D11 (designed binder, not shown: small tags and cut ends) LPAPKNLVVSRVTEDSARLSWTAPDAAFDSFWIRYFEFLGSGEAIVLTVPGSERSYDLTGLKPGTEYVVGINGVKGGYISYPLSAIFTT",–,–,–,–,–,–,–,16,2.3,14.4
"P114AR7P94-E5 (designed binder, not shown: small tags and cut ends) LPAPKNLVVSRVTEDSARLSWTAPDAAFDSFWIRYFEFLGSGEAIVLTVPGSERSYDLTGLKPGTEYAVNIMGVKGGRVSVPLSAIFTT",–,–,–,–,–,0.7,4.2,124,3.4,196
"P114AR7P92-H5 (designed binder, not shown: small tags and cut ends) LPAPKNLVVSRVTEDSARLSWTAPDAAFDSFWIRYLEFLLGGEAIVLTVPGSERSYDLTGLKPGTEYVVQIMGVKGGTVSPPLSAIFTT",–,–,–,–,–,–,11.6,766,22,672
"P114AR7P95-E3 (designed binder, not shown: small tags and cut ends) LPAPKNLVVSRVTEDSARLSWTAPDAAFDSFWIRYFEFLGSGEAIVLTVPGSERSYDLTGLKPGTEYVVQIMGVKGGTVSPPLSAIFTT",–,–,–,–,–,–,–,205,3.2,209
